# Test results: paper PMC11178655, “Dosimetry and pharmacokinetics of [^177Lu]Lu-satoreotide tetraxetan in patients with progressive neuroendocrine tumours” (European Journal of Nuclear Medicine and Molecular Imaging, 2024)
# Values joined by “and” are separate entries in the source; they are usually repeats but may differ in a detail not shown here. Equal values may be shown once. Where a SMILES comes first, the peptide text is derived from it. Bridges are numbered along the chain shown (N, C = ends). [ ]: non-standard residue; d: D form. The star is where a group is joined. DOTA = O=C(O)CN1CCN(CC(=O)O)CCN(CC(=O)*)CCN(CC(=O)O)CC1; dPhe(4-NHCONH2) = NC(=O)Nc1ccc(C[C@@H](N)C(=O)O)cc1; Dihydroorotyl(S) = O=C1C[C@@H](C(=O)*)NC(=O)N1; Phe(4-Cl) = N[C@@H](Cc1ccc(Cl)cc1)C(=O)O; Phe(4-NH2) = Nc1ccc(C[C@H](N)C(=O)O)cc1
# System: patients with progressive, SSTR-positive NETs
# Test: Patient-specific image-based dosimetry (NUKDOS) of tumours and organs, phase I/II trial
# Assay type: in vivo, human
# Description: In both parts A and B of the study, patients underwent planar whole-body imaging at 4 h and 1, 2, 3, and 6 days after each [^177Lu]Lu-satoreotide tetraxetan treatment cycle. Patients in part A also underwent single-photon emission computed tomography/computed tomography (SPECT/CT) at 24 h after each [^177Lu]Lu-satoreotide tetraxetan cycle. Those in part B underwent SPECT/CT, immediately before or after planar scintigraphy, at 4 h, and 1, 2, 3, and 6 days after each [^177Lu]Lu-satoreotide tetraxetan administration. Full details of the image acquisition methodology are provided in the Supplementary Information.
# Delineation of tumour volumes was performed on anatomical SPECT/CT images after each [^177Lu]Lu-satoreotide tetraxetan administration. Tumours with a longest diameter < 2 cm were not analysed due to the difficulty in correcting for partial volume effects caused by the limited spatial resolution of the SPECT/CT systems. For study inclusion in part A, one tumour lesion ≥ 2 cm must have been present for eligibility; in part B, two or more tumour lesions ≥ 2 cm must have been present, each with an uptake on SSTR imaging higher than that of normal liver parenchyma (target lesion on [^68Ga]Ga-DOTA-TATE or -DOTA-TOC positron emission tomography: maximum standardised uptake value [SUVmax] ≥ 2x the mean SUV [SUVmean] of liver background; or ^111In-scintigraphy/SPECT: Krenning score 3 or 4 [uptake > normal liver, or uptake > spleen or kidneys, respectively [26]]).
# Reconstruction parameters were set up to produce isotropic voxels of < 5 mm; voxels were continuous throughout the field of view. Anatomic coverage of the acquisition was determined according to the patients’ tumour locations on the planar whole-body scan acquisition with liver, both kidneys and spleen in the same bed position. For organs showing [^177Lu]Lu-satoreotide tetraxetan uptake, regions of interest (ROIs)/volumes of interest (VOIs) were drawn manually over the whole organs of interest (whole body, left and right kidneys, liver, spleen, and bone marrow), using the NUKDOS software for planar whole-body scans and the SPECT/CT acquired in part A [27]. VOIs for the same organs were drawn for all SPECT/CT images acquired in part B. All ROIs/VOIs were then used for activity quantification. Time-integrated activity coefficients (TIACs) for a given source volume were computed by integrating the time-activity curves. Full details of the tumour delineation and activity quantification methodology are provided in the Supplementary Information.
# Patient-specific dosimetry calculations were performed after each treatment cycle in both parts A and B, using the absorbed dose calculation features of the NUKDOS software for image-based dosimetry calculations. The NUKDOS software was chosen as it allowed for an integral approach to organ dosimetry (including image quantification, time-activity curve-fitting and dosimetry calculation). For the bone marrow, both image-based and blood-based calculations were performed in part A [28, 29]. In part B, only image-based bone marrow dosimetry was performed. Organ Level INternal Dose Assessment/EXponential Modelling (OLINDA/EXM) version 1.0 software, the most widely used version at the time of the study, was used to perform model-based dosimetry calculations, which were only performed after the first [^177Lu]Lu-satoreotide tetraxetan cycle for patients in part B. To generate organ-specific absorbed doses, TIACs were used as input data. Full details on OLINDA/EXM software settings and organ-specific TIAC calculation methods are provided in the Supplementary Information.
# All images were acquired with a 20% energy window around the main photopeak of ^177Lu (208 keV). For scatter correction, the triple-energy window method was applied based on the recommendation of the Committee on Medical Internal Radiation Dose. Whole-body images were acquired with a scanning time of 20 cm/min in a 256 × 1,024 matrix. […]
# [1] = Part B Cohort 3 (4.5 GBq, 300 µg; 700 µg at cycle 2), median (range), n = 8
# [2] = Part B Cohort 3 (4.5 GBq/cycle), image-based dosimetry, median (range), n = 6
# [3] = Part B Cohort 3 (4.5 GBq/cycle), median (range), n = 8
# [4] = Part B Cohort 3 (4.5 GBq/cycle), median (range), n = 9
# [5] = Part B Cohort 3, median (range), n = 8
# [6] = Part B Cohort 6 (4.5 GBq/cycle), median (range), n = 6
# [7] = Part B Cohort 6 (4.5 GBq/cycle), median (range), n = 7
# [8] = Part B Cohort 6 (4.5 GBq/cycle), median (range), n/n-les 4/9
structure (smiles),measurement,setting,value
"C[C@@H](O)[C@@H]1NC(=O)[C@H](CCCCN)NC(=O)[C@@H](Cc2ccc(NC(N)=O)cc2)NC(=O)[C@H](Cc2ccc(NC(=O)[C@@H]3CC(=O)NC(=O)N3)cc2)NC(=O)[C@H](NC(=O)[C@H](Cc2ccc(Cl)cc2)NC(=O)CN2CCN(CC(=O)O)CCN(CC(=O)O)CCN(CC(=O)O)CC2)CSSC[C@@H](C(=O)N[C@H](Cc2ccc(O)cc2)C(N)=O)NC1=O [[^177Lu]Lu-satoreotide tetraxetan, metal not drawn] ({DOTA}-[Phe(4-Cl)][dC][Phe(4-NH2)](Dihydroorotyl(S))[dPhe(4-NHCONH2)]KTC[dY]-NH2; disulfide 2-7 (inferred); C-terminus assumed)","Cycle 3 ADC, Kidneys",[1],0.8 (0.4–1.2) Gy/GBq
same,"Cycle 3 ADC, Tumours",[1],5.5 (2.6–16.8) Gy/GBq
same,"Ratio of ADCs Cycle 2/Cycle 1 (700 vs. 300 µg), Bone marrow",[2],95.0 (36.4–143) %
same,"Ratio of ADCs Cycle 2/Cycle 3 (700 vs. 300 µg), Bone marrow",[2],95.0 (60.0–125) %
same,"Ratio of ADCs Cycle 2/Cycle 3 (700 vs. 300 µg), Spleen","Part B Cohort 3 (4.5 GBq/cycle), median (range), n = 5",79.3 (61.2–90.8) %
same,"Ratio of ADCs Cycle 2/Cycle 1 (700 vs. 300 µg), Spleen","Part B Cohort 3 (4.5 GBq/cycle), median (range), n = 6",61.9 (45.9–108) %
same,"Ratio of ADCs Cycle 2/Cycle 3 (700 vs. 300 µg), Body",[3],101 (78.7–132) %
same,"Ratio of ADCs Cycle 2/Cycle 3 (700 vs. 300 µg), Kidney",[3],82.0 (64.8–110) %
same,"Ratio of ADCs Cycle 2/Cycle 1 (700 vs. 300 µg), Body",[4],83.3 (52.8–100) %
same,"Ratio of ADCs Cycle 2/Cycle 1 (700 vs. 300 µg), Kidney",[4],80.8 (61.0–113) %
same,"Ratio of ADCs Cycle 2/Cycle 3 (700 vs. 300 µg), Liver lesions","Part B Cohort 3 (4.5 GBq/cycle), median (range), n/n-les 6/9",68.9 (57.3–121) %
same,"Ratio of ADCs Cycle 2/Cycle 1 (700 vs. 300 µg), Liver lesions","Part B Cohort 3 (4.5 GBq/cycle), median (range), n/n-les 7/10",70.4 (52.4–95.7) %
same,"Ratio of ADCs Cycle 2/Cycle 3 (700 vs. 300 µg), All lesions","Part B Cohort 3 (4.5 GBq/cycle), median (range), n/n-les 8/15",77.6 (52.4–121) %
same,"Ratio of ADCs Cycle 2/Cycle 1 (700 vs. 300 µg), All lesions","Part B Cohort 3 (4.5 GBq/cycle), median (range), n/n-les 9/17",62.5 (27.6–95.7) %
same,"Ratio of Cycle 3/ Cycle 1 ADCs, Bone marrow","Part B Cohort 3, image-based dosimetry, median (range), n = 6",106 (36.4–138) %
same,"Ratio of Cycle 3/ Cycle 1 ADCs, Spleen","Part B Cohort 3, median (range), n = 5",87.8 (76.0–152) %
same,"Ratio of Cycle 3/ Cycle 1 ADCs, Kidneys",[5],94.1 (78.9–146) %
same,"Ratio of Cycle 3/ Cycle 1 ADCs, Tumours",[5],80.5 (44.1–152) %
same,"Cycle 1 ADC, Bone marrow","Part B Cohort 6 (4.5 GBq, 300 µg), image-based dosimetry, median (range), n = 6",0.1 (0.0–0.2) Gy/GBq
same,"Cycle 1 ADC, Spleen","Part B Cohort 6 (4.5 GBq, 300 µg), median (range), n = 6",0.8 (0.4–1.0) Gy/GBq
same,"Cycle 1 ADC, Tumours","Part B Cohort 6 (4.5 GBq, 300 µg), median (range), n = 8",13.5 (2.2–81.0) Gy/GBq
same,"Cycle 1 ADC, Kidneys","Part B Cohort 6 (4.5 GBq, 300 µg), median (range), n = 9",0.8 (0.4–1.1) Gy/GBq
same,"Cycle 3 ADC, Bone marrow","Part B Cohort 6 (4.5 GBq, 300 µg; 1,300 µg at cycle 2), image-based dosimetry, median (range), n = 3",0.1 (0.0–0.1) Gy/GBq
same,"Cycle 3 ADC, Spleen","Part B Cohort 6 (4.5 GBq, 300 µg; 1,300 µg at cycle 2), median (range), n = 4",0.8 (0.7–1.5) Gy/GBq
same,"Cycle 3 ADC, Tumours","Part B Cohort 6 (4.5 GBq, 300 µg; 1,300 µg at cycle 2), median (range), n = 5",7.7 (3.2–70.3) Gy/GBq
same,"Cycle 3 ADC, Kidneys","Part B Cohort 6 (4.5 GBq, 300 µg; 1,300 µg at cycle 2), median (range), n = 6",0.8 (0.7–1.2) Gy/GBq
same,"Ratio of ADCs Cycle 2/Cycle 3 (1300 vs. 300 µg), Bone marrow","Part B Cohort 6 (4.5 GBq/cycle), image-based dosimetry, median (range), n = 3",114 (50.0–120) %
same,"Ratio of ADCs Cycle 2/Cycle 1 (1300 vs. 300 µg), Bone marrow","Part B Cohort 6 (4.5 GBq/cycle), image-based dosimetry, median (range), n = 4",200 (80.0–240) %
same,"Ratio of ADCs Cycle 2/Cycle 3 (1300 vs. 300 µg), Spleen","Part B Cohort 6 (4.5 GBq/cycle), median (range), n = 4",49.7 (49.3–52.6) %
same,"Ratio of ADCs Cycle 2/Cycle 1 (1300 vs. 300 µg), Spleen","Part B Cohort 6 (4.5 GBq/cycle), median (range), n = 5",48.0 (44.3–94.4) %
same,"Ratio of ADCs Cycle 2/Cycle 3 (1300 vs. 300 µg), Body",[6],87.6 (72.7–102) %
same,"Ratio of ADCs Cycle 2/Cycle 3 (1300 vs. 300 µg), Kidney",[6],72.4 (52.8–96.3) %
same,"Ratio of ADCs Cycle 2/Cycle 1 (1300 vs. 300 µg), Body",[7],82.3 (48.3–97.6) %
same,"Ratio of ADCs Cycle 2/Cycle 1 (1300 vs. 300 µg), Kidney",[7],92.5 (65.9–121) %
same,"Ratio of ADCs Cycle 2/Cycle 1 (1300 vs. 300 µg), Liver lesions",[8],48.4 (24.7–76.5) %
same,"Ratio of ADCs Cycle 2/Cycle 3 (1300 vs. 300 µg), Liver lesions",[8],67.9 (40.6–104) %
same,"Ratio of ADCs Cycle 2/Cycle 3 (1300 vs. 300 µg), All lesions","Part B Cohort 6 (4.5 GBq/cycle), median (range), n/n-les 5/11",67.9 (40.6–104) %
same,"Ratio of ADCs Cycle 2/Cycle 1 (1300 vs. 300 µg), All lesions","Part B Cohort 6 (4.5 GBq/cycle), median (range), n/n-les 6/13",44.4 (24.7–76.5) %
same,"Ratio of Cycle 3/ Cycle 1 ADCs, Bone marrow","Part B Cohort 6, image-based dosimetry, median (range), n = 3",200 (175–400) %
same,"Ratio of Cycle 3/ Cycle 1 ADCs, Spleen","Part B Cohort 6, median (range), n = 3",185 (84.2–192) %
same,"Ratio of Cycle 3/ Cycle 1 ADCs, Tumours","Part B Cohort 6, median (range), n = 4",79.0 (28.6–114) %
same,"Ratio of Cycle 3/ Cycle 1 ADCs, Kidneys","Part B Cohort 6, median (range), n = 5",143 (88.8–198) %
same,"Cumulative bone marrow absorbed dose, single patient","cohort 1 patient, one cycle at 5.9 GBq, developed grade 3 thrombocytopenia",3.6 Gy
same,"Overall specific absorbed dose coefficient in all lesions, initial diagnosis Pheochromocytoma + paraganglioma","first treatment cycle, median, N = 4",2.1 Gy/GBq
same,"Overall specific absorbed dose coefficient in all lesions, initial diagnosis Lung NET","first treatment cycle, median, N = 6",5.1 Gy/GBq
same,"Overall specific absorbed dose coefficient in all lesions, initial diagnosis GEP-NET","first treatment cycle, median, N = 23",5.8 Gy/GBq
same,"Patients with ADC ratio > 150% between cycle 3 and cycle 1, bone marrow","human, in vivo",23.8 % of patients
same,"Patients with ADC ratio > 150% between cycle 3 and cycle 1, kidneys","human, in vivo",8.3 % of patients
same,"Patients with ADC ratio > 150% between cycle 3 and cycle 1, liver","human, in vivo",no patients
same,"Patients with ADC ratio > 150% between cycle 3 and cycle 1, spleen","human, in vivo",22.2 % of patients
same,"Mean cumulative absorbed dose in the left and right kidneys, single patient","part A patient, three cycles each at 4.5 GBq, eGFR below normal at baseline, no further deterioration of renal function",24.1 Gy
same,"Cumulative bone marrow absorbed dose, single patient","part A patient, three treatment cycles at 4.5, 4.4 and 4.3 GBq, no acute haematological toxicity",2.2 Gy
same,"Cumulative absorbed dose, bone marrow, image-based method","part A, cycles 1–3, 11 evaluated patients, median",1.1 Gy
same,"Cycle 1 ADC, Tumours","part B (all cohorts), median [range]",7.9 [1.9–83.3] Gy/GBq
same,"Cumulative bone marrow absorbed dose, single patient","part B cohort 1 patient, two treatment cycles at 4.7 GBq, no acute haematological toxicity",1.9 Gy
same,"Cumulative absorbed dose, kidneys (both left and right)","parts A and B, after cycles 1–3, median, pre-specified limit 23.0 Gy",10.8 Gy
same,"Cumulative absorbed dose, bone marrow, image-based","parts A and B, patients who completed three cycles (n = 21), median, pre-specified limit 1.5 Gy",1.1 Gy
same,Cycle 1 ADC of tumours with ADC ratio cycle 3/cycle 1 > 150%,range,0.6–4.1 Gy/GBq
same,Observations of ADC ratio between cycle 3 and cycle 1 in tumours > 150%,share of observations,6.5%
same,"Cumulative bone marrow absorbed dose, single patients","two additional patients after treatment cycle 4, individual values",1.5 Gy and 1.8 Gy
